From patent US20050070692A1 (published 2005) come the findings set out here.

By IC50 is commonly meant the concentration that gives 50% inhibition. The Kd is the free concentration of one partner at which half of the binding sites on the other are occupied at equilibrium, for simple one-to-one binding.

Where a chain is given by its changes, count along the chain named. Names and notes keep the numbering of the source.

The target in assay [1] is T1, human IL-1β (human, UniProt P01584 117-269).
T1 construct: mature; also called mature human IL-1β; Interleukin-1β
The assay can be described thus: competition ELISA on coated human IL-1β against biotinylated Mu007, Exp. C. Here is the method:
(§1) Wells of 96-well ELISA plates (Nunc-lmmuno plate, Cat # 439454, NalgeNunc) were coated with 100 μL of 0.5. μg/mL of human IL-1β in 0.2M sodium carbonate-bicarbonate buffer (pH 9.4) overnight at 4° C., washed with Wash Buffer, blocked with Superblock blocking buffer for 30 min at 37° C., and washed again with Wash Buffer. A mixture of biotinylated Mu007 (0.16 μg/mL final concentration) and competitor antibody (Mu007, Hu007, or Hu007 analogs starting at 100 μg/mL final concentration and serial 3-fold dilutions) in ELISA Buffer were added in triplicate in a final volume of 100 μL per well. As a no-competitor control, 100 μL of 0.16 μg/mL biotinylated Mu007 was used. As a background control, 100 gLL of ELISA Buffer was used. ELISA plates were incubated at 37° C. for 2 hr. After washing the wells with Washing Buffer, 100 μL of 1 μg/mL HRP-conjugated streptavidin (Jackson ImmunoResearch) was added to each well. ELISA plates were incubated at room temperature for 30 min and washed with Washing Buffer. For color development, 100 μL/well of ABTS substrate was added. Color development was stopped by adding 100 μL/well of 2% oxalic acid. Absorbance was read at 415 nm.
(§2) Mu007, Hu007 and Hu007 analogs competed with biotinylated Mu007 in a concentration-dependent manner. The IC₅₀ values of Mu007 and Hu007 in three independent ELISA competition experiments, obtained using the computer software Prism (GraphPad Software Inc., San Diego, Calif.) are shown in Table 1. The relative binding of Hu007 was on average 89% of Mu007.

For assay [2], the target named is T1, human IL-1β. The assay can be described thus: cell-based or functional assay.
In another assay the target is T2, cynomolgus monkey IL-1β (cynomolgus monkey, UniProt P79182 117-268).
T2 construct: also called Cynomolgus IL-1β
T2 sequence (looked up): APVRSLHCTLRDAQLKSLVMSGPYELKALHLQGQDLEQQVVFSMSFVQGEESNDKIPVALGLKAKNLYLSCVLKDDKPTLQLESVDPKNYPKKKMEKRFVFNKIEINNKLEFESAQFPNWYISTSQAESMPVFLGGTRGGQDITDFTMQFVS
The assay can be described thus: BIAcore, antibody captured on anti-IgG CM5 chip, IL-1β flowed. How it is done: (§3) Affinities and specificities of both Hu007 and Mu007 were determined using BlAcore measurements. BIAcore™ is an automated biosensor system that measures molecular interactions. (Karlsson, et al. (1991) J. Immunol. Methods 145: 229-240). In these experiments antibody was immobilized at low density on a BIAcore™ chip. Ethyl-dimethylaminopropyl-carbodiimide (EDC) was used to couple reactive amino groups to purified goat anti-human IgG or goat anti-rabbit IgG to a flow cell of a carboxy-methyl (CM5) BIAcore™ sensor chip. Goat IgG was diluted in sodium acetate buffer, pH 4.0, and immobilized on a flow cell of a CM5 chip using EDC to yield 1000 response units. Unreacted sites were blocked with ehanolamine. A flow rate of 60 μL/min was used. Multiple binding/elution cycles were performed by injection a 100 μL solution of 15 μg/mL Mu007 or Hu007 followed by human IL-1β, mouse IL-1β, rat IL-1β, cynomolgus monkey IL-1β, porcine IL-1β, human IL-1 receptor antagonist, and human IL-1α at decreasing concentrations for each cycle (e.g., 1500, 750, 375, 188, 94, 47, 23.5, 12, and 0 picomolar). Elution was performed with glycine-HCl, pH 1.5. BIAevaluation™ was used to analyze the kinetic data. Table 2 depicts the affinities of Hu007 and Mu007 for human and cynomolgus IL-1β. […] Cynomolgus and porcine IL-1β had 100% binding to Hu007 relative to human IL-1β.
Background: Surface plasmon resonance follows binding to a sensor surface in real time, without labels.

Assay [3] deals with T1, human IL-1β. Described as above. Here is the method: as §3
Assay [4] concerns the target T1, human IL-1β. The assay can be described thus: competition ELISA on coated human IL-1β against biotinylated Mu007, average of three experiments. Here is the method: as §1
Mu007, Hu007 and Hu007 analogs competed with biotinylated Mu007 in a concentration-dependent manner. […]
On the technique in general: An ELISA detects its analyte on a solid surface through an enzyme-linked reagent.

Assay [5] concerns the target T1, human IL-1β. The assay can be described thus: competition ELISA on coated human IL-1β against biotinylated Mu007, Exp. A. How it is done: as §1, §2
In assay [6] the target is T1, human IL-1β. The assay can be described thus: competition ELISA on coated human IL-1β against biotinylated Mu007, Exp. B. Here is the method: as §1, §2
In assay [7] the target is T1, human IL-1β. The assay can be described thus: cell-based or functional assay. This is another data set of the same source.
Assay [8] deals with T1, human IL-1β. The assay can be described thus: BIAcore (Example 13). Here is the method: (§4) Affinities and specificities of several Hu007 analogs were determined using BIAcore measurements. BIAcore™ is an automated biosensor system that measures molecular interactions. (Karlsson, et al. (1991) J. Immunol. Methods 145: 229-240). In these experiments antibody was immobilized at low density on a BIAcore™ chip. Ethyl-dimethylaminopropyl-carbodiimide (EDC) was used to couple reactive amino groups to protein A to a flow cell of a carboxy-methyl (CM5) BIAcore™ sensor chip. Protein A was diluted in sodium acetate buffer, pH 4.5, and immobilized on a flow cell of a CM5 chip using EDC to yield approximately 1000 response units. Unreacted sites were blocked with ethanolamine. A flow rate of 60 μl/min was used. Multiple binding/elution cycles were performed by injection of 10 μl of a 5 μg/mL Hu007 solution, and heavy chain CDR2 analogs N55D, N55S, N55Q, G56A, and G56V, followed by human IL-1β at decreasing concentrations for each cycle (e.g. 1500, 750, 375, 188, and […]). Elution was performed with glycine-HCl, pH 1.5. BIAevaluation™ was used to analyze the kinetic data. Table 5 depicts the affinities of Hu007 and the various Hu007 analogs for human IL-1β.

In assay [9] the target is T1, human IL-1β. The assay can be described thus: BIAcore, antibody captured on protein A CM5 chip, human IL-1β flowed. Here is the method: as §4

B1: mouse monoclonal antibody Mu007 (antibody, V domains shown)
VH: QVQLVQSGAEVKKPGASVKVSCKVSGYTFSRYWIEWVRQAPGKGLEWIGEILPGNGNINYNEKFKGKATITADTSTDTAYMELSSLRSEDTAVYYCSTIYYDYDQGFTYWGQGTLVTVSA
VL: DIKMTQSPSSMYASLGERVTITCKASQDIDRYLSWFQQKPGKSPKTLIYRVKRLVDGVPSRFSGSASGQDYSLTISSLQYEDMGIYYCLQYDEFPYTFGGGTKLEIK
Consider B1, for which the half-maximal inhibitory concentration (IC50) with human IL-1β [1] came to 0.39 µg/mL; with human IL-1β [4] it was 0.4 µg/mL; with human IL-1β [5] it was 0.4 µg/mL; in the assay with human IL-1β [6], 0.4 µg/mL. Also, the “IC50, inhibition of IL-1β stimulated proliferation of T1165.17 cells (3H-thymidine), average of three experiments” value with human IL-1β [2] was 0.22 nM. Besides, the dissociation constant (Kd) was 0.0073 nM with cynomolgus monkey IL-1β and 0.0062 nM with human IL-1β [3].

B2: Hu007 analog N55D (antibody, human IgG1, kappa, V domains shown)
VH: B1 VH with N55D, A120S
VL: DIQMTQSPSSLSASVGDRVTITCKASQDIDRYLSWFQQKPGKAPKSLIYRVKRLVDGVPSRFSGSASGTDYTLTISSLQPEDFATYYCLQYDEFPYTFGQGTKLEIKR
notes: IgG1; Heavy chain of Hu007 with N55D, co-transfected with the WT Hu007 light chain; It mimics fully deamidated Hu007; also called heavy chain CDR2 analog N55D
Consider B2, for which, in the assay with human IL-1β [7], the “IC50, inhibition of human IL-1β stimulated proliferation” value is 1100 Picomolar. Moreover, the “fold loss of binding affinity against Hu007” value with human IL-1β [8] was approximately 15 fold. In the assay with human IL-1β [9], the Kd was determined as 0.149 nM.

B3: Hu007 analog N55S (antibody, human IgG1, kappa, V domains shown)
VH: B1 VH with N55S, A120S
VL: B2 VL
notes: IgG1; also called heavy chain CDR2, N55S
With B3, the “IC50, inhibition of human IL-1β stimulated proliferation” value in the assay with human IL-1β [7] was found to be 184 Picomolar. Also, the “fold of the binding affinity of Hu007” value with human IL-1β [8] was not above 3 fold. Besides, the dissociation constant (Kd) with human IL-1β [9] was determined as 0.0281 nM.

B4: Hu007 analog G56A (antibody, human IgG1, kappa, V domains shown)
VH: B1 VH with G56A, A120S
VL: B2 VL
notes: IgG1; Heavy chain of Hu007 with G56A, co-transfected with the WT Hu007 light chain
For B4, in the assay with human IL-1β [7], the “IC50, inhibition of human IL-1β stimulated proliferation” value turned out to be 184 Picomolar. Moreover, binding with human IL-1β [9] was characterised by a dissociation constant (Kd) of 0.0336 nM.

B5: Hu007 analog G56V (antibody, human IgG1, kappa, V domains shown)
VH: B1 VH with G56V, A120S
VL: B2 VL
notes: IgG1; Heavy chain of Hu007 with G56V, co-transfected with the WT Hu007 light chain
Consider B5, for which the “IC50, inhibition of human IL-1β stimulated proliferation” value with human IL-1β [7] was determined as 395 Picomolar. The molecule further came in with a dissociation constant Kd with human IL-1β [9] of 0.0732 nM.

B6: Hu007 analog N55Q (antibody, human IgG1, kappa, V domains shown)
VH: B1 VH with N55Q, A120S
VL: B2 VL
notes: IgG1; Heavy chain of Hu007 with N55Q, co-transfected with the WT Hu007 light chain
Regarding B6, in the assay with human IL-1β [7], the “IC50, inhibition of human IL-1β stimulated proliferation” value was determined as 2500 Picomolar. In the assay with human IL-1β [9], the equilibrium dissociation constant (Kd) amounted to 0.257 nM.
